Assay results taken from patent publication US20240218063A1 (HARPOON THERAPEUTICS, published 2024).
Numbering of substitutions follows the chain as printed.

T1: human DLL3 on DLL3 expressing cancer cell lines (human, UniProt Q9NYJ7 27-618)
T1 sequence: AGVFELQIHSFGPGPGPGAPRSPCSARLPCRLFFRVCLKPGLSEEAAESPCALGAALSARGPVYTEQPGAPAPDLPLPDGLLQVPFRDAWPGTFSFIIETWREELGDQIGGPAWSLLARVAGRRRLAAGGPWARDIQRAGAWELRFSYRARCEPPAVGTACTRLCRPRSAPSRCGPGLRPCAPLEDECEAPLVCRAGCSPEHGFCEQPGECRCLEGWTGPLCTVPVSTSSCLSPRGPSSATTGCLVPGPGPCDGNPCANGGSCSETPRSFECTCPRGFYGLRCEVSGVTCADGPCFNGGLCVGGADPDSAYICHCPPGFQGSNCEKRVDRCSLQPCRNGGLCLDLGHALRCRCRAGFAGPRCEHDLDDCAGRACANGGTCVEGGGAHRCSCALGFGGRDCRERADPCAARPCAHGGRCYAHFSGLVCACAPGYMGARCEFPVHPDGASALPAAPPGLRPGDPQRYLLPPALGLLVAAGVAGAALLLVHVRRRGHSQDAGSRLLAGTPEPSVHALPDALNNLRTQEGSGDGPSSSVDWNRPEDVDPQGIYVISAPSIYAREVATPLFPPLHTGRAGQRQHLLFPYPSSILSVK

B1: anti-DLL3 trispecific protein 1A011 (other, not shown: small tags and cut ends)
chain: EVQLVESGGGLVQPGGSLTLSCVASGSTSSINAIGWYRRAPGKQRELVAGISSDGSKVYIDSVKGRFTISRDNAKNSVYLQMNSLRAEDTAVYYCYYFRTVSGSSYRYWGQGTLVTVSS
B2: anti-DLL3 trispecific protein 1H012 (other, not shown: small tags and cut ends)
chain: B1 chain with I34M, I60V, Y106M, R107P
B3: anti-DLL3 trispecific protein 2C04 (other, not shown: small tags and cut ends)
chain: B1 chain with I31R, I34M, V58L, I60A, S102L, Y106M
B4: anti-DLL3 trispecific protein 2H02 (other, not shown: small tags and cut ends)
chain: B1 chain with I34M, G35A, V48A, I60A, R99H, Y106M
B5: anti-DLL3 trispecific protein 2E05 (other, not shown: small tags and cut ends)
chain: B1 chain with T28P, I34Y, I60S, Y106M, R107S
B6: anti-DLL3 trispecific protein 2E02 (other, not shown: small tags and cut ends)
chain: B1 chain with S30A, I34M, I60V, Y106Q
B7: anti-DLL3 trispecific protein 4D09 (other, not shown: small tags and cut ends)
chain: EVQLVESGGGLVQPGGSLTLSCAASGSSVKFLSMAWYRQAPGKKRELVAGISADGSTDYILSVKGRFTISRDNAKNSVYLQMNSLRAEDTAVYYCYAYEWTTRYTYWGQGTLVTVSS
B8: anti-DLL3 trispecific protein 4H011 (other, not shown: small tags and cut ends)
chain: B7 chain with K30S, F31R, A53V, L61D, E99R, Y104L
B9: anti-DLL3 trispecific protein 4D011 (other, not shown: small tags and cut ends)
chain: B7 chain with K30R, A53V, L61D, E99R, T101R

Columns and labels:
[1] = molecular target: T1, human DLL3 on DLL3 expressing cancer …; test: cell-based or functional assay
[2] = molecular target: T1, human DLL3 on DLL3 expressing cancer …; test: cell-based or functional assay; remark: listed apart in the source

Binder	TDCC EC50, CHO expressed purified protein [1]	fold increase in TDCC potency compared to the parental DLL3 binder DH6 [2]
B1	170 pM	
B2	63 pM	
B3	43 pM	
B4	96 pM	
B5	72 pM	
B6	120 pM	
B7	60 pM	
B8		> 8 fold
B9	98 pM	
